In the supplement of paper PMC10065799, “High-throughput profiling of sequence recognition by tyrosine kinases and SH2 domains using bacterial peptide display” (eLife, 2023):

Columns and labels:
[1] = tested on: AncSZ; experiment: phosphorylation enrichment, bacterial display (enrichment ratio); higher = better substrate or ligand; peptides without Tyr show the background
[2] = molecular target: EPHB1 (UniProt P54762); experiment: as above
[3] = molecular target: EPHB2 (UniProt P29323); experiment: as above
Sequence of EPHB2 (P29323 whole entry, looked up): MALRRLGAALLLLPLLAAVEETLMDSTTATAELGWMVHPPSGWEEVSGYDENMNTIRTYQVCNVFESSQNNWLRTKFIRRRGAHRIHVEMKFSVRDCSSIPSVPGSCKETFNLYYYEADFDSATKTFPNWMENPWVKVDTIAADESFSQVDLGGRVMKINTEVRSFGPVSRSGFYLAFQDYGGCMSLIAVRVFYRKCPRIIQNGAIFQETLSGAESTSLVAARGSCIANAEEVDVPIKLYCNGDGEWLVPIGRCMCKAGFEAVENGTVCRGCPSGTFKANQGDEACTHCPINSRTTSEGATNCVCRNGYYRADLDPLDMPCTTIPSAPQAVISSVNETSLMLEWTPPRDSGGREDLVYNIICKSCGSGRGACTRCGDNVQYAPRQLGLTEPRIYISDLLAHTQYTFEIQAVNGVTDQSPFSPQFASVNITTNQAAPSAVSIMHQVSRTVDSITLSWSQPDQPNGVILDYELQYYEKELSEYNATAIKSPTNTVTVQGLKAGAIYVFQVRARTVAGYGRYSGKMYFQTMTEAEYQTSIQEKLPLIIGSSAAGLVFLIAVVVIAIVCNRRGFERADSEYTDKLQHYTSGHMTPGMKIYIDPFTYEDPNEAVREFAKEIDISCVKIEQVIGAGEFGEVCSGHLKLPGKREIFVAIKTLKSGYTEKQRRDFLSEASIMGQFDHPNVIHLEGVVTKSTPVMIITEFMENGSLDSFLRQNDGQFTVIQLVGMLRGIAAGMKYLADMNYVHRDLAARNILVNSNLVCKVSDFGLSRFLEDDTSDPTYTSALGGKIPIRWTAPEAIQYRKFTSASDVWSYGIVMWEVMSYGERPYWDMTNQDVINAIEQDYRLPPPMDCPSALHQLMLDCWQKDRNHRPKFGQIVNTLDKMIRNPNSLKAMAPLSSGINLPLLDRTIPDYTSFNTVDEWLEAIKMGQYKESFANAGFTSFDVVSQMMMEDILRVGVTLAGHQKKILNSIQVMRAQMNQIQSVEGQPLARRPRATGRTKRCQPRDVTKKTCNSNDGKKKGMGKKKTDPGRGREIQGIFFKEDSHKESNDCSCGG

[4] = molecular target: FGFR1 (UniProt P11362); experiment: as above
[5] = molecular target: FGFR3 (UniProt P22607); experiment: as above
Sequence of FGFR3 (P22607 whole entry, looked up): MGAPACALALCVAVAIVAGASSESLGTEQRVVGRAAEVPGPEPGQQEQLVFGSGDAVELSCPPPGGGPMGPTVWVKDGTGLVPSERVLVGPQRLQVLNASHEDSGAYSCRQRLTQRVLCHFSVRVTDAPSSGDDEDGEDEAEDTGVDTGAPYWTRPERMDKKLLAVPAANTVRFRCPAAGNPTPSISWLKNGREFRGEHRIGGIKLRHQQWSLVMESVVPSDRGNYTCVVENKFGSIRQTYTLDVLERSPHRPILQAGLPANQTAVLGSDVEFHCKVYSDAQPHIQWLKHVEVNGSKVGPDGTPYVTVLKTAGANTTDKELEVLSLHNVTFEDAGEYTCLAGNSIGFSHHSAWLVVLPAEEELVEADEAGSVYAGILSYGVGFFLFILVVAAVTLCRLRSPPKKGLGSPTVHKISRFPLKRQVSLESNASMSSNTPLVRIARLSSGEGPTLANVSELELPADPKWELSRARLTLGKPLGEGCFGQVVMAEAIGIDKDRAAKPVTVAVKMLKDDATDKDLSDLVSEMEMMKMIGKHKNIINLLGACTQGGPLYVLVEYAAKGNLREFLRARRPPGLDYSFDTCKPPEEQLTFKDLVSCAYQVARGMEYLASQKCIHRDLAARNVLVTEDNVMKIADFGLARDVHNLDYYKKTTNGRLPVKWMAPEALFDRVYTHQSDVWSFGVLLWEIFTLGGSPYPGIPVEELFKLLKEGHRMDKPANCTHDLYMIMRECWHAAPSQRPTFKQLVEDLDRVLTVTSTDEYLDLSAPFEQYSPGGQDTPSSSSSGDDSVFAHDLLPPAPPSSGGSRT

[6] = tested on: Fer (mouse); experiment: as above
[7] = molecular target: Fes (UniProt P07332); experiment: as above
Sequence of Fes (P07332 whole entry, looked up): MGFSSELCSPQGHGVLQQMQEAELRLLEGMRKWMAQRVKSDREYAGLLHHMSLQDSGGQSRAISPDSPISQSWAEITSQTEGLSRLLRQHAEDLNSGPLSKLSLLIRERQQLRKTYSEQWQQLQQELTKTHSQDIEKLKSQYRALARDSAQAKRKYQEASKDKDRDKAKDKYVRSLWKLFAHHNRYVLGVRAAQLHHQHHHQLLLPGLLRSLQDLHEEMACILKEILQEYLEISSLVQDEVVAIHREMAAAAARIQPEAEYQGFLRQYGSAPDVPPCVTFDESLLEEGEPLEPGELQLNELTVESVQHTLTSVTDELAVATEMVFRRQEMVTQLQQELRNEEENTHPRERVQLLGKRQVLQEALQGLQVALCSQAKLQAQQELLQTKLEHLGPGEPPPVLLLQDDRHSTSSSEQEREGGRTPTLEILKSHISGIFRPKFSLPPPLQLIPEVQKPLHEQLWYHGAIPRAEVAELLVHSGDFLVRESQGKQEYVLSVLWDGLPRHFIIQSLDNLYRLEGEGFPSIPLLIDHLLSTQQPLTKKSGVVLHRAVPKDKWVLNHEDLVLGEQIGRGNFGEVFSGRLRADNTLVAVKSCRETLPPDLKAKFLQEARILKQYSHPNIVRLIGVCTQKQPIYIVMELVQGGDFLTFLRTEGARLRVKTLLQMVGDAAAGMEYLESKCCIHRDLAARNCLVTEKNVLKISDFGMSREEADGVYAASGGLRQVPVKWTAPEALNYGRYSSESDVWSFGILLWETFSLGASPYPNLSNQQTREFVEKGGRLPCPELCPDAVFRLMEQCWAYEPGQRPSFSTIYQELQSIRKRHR

[8] = molecular target: Fyn (UniProt P06241); experiment: as above
[9] = molecular target: Hck (UniProt P08631); experiment: as above
[10] = molecular target: Jak2 (UniProt O60674); experiment: as above
Sequence of Jak2 (O60674 whole entry, looked up): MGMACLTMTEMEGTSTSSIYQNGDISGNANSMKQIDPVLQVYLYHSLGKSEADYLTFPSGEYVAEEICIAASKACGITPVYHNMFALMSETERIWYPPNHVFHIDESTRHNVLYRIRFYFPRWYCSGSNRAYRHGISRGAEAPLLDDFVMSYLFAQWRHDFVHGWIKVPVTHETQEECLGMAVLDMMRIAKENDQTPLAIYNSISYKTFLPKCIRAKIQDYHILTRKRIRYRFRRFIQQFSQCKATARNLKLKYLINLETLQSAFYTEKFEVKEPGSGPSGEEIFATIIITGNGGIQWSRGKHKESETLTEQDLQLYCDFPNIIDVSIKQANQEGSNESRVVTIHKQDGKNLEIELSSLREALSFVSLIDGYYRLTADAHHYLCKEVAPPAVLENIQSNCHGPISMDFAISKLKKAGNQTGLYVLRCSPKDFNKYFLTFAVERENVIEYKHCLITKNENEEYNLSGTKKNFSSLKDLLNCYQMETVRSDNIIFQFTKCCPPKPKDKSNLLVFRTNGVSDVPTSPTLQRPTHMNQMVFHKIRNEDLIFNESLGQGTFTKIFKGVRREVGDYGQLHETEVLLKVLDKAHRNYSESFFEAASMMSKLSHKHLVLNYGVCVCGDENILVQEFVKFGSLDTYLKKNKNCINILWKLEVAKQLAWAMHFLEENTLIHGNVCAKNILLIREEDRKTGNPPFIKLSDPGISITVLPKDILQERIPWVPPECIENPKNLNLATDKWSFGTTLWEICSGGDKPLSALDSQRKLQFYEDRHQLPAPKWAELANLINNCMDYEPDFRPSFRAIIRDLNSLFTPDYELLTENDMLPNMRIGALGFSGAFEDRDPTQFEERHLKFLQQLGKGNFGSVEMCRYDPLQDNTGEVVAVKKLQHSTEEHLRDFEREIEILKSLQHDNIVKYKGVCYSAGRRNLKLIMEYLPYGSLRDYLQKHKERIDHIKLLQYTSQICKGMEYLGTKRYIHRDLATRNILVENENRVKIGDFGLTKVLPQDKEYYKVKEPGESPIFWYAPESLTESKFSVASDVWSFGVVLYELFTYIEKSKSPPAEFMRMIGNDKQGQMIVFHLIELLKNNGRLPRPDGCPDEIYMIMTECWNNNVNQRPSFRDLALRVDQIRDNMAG

[11] = molecular target: MERTK (UniProt Q12866); experiment: as above
[12] = tested on: c-Abl (mouse); experiment: as above
[13] = tested on: c-Src; experiment: as above
[14] = molecular target: Grb2 SH2 (UniProt P62993); experiment: SH2 binding enrichment of the phosphorylated peptide, bacterial display (enrichment ratio); higher = better substrate or ligand; peptides without Tyr show the background
Sequence of Grb2 SH2 (P62993 whole entry, looked up): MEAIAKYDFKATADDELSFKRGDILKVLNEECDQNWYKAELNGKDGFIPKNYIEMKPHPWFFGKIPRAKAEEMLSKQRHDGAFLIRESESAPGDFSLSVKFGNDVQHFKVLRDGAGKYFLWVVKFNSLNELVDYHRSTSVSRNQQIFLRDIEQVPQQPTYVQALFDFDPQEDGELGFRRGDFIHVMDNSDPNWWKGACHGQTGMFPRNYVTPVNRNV

[15] = molecular target: SHP2-C SH2; experiment: as above
[16] = molecular target: c-Src SH2; experiment: as above
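For SH2 binding enrichment of the phosphorylated peptide, bacterial display in this document: peptide library displayed on the E. coli surface as eCPX fusions, selected cells deep-sequenced, score is each peptide's frequency after selection divided by its frequency in the input.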
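For phosphorylation enrichment, bacterial display in this document: 11-residue human phosphosite peptides and single-mutation variants displayed on the E. coli surface, counted by deep sequencing, each peptide's frequency after selection divided by its frequency in the unselected input library; frequency after pTyr selection over input frequency; kinase dosed for 20-30% of maximal phosphorylation in three min.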

Sequence of EPHB1 (P54762 whole entry, looked up): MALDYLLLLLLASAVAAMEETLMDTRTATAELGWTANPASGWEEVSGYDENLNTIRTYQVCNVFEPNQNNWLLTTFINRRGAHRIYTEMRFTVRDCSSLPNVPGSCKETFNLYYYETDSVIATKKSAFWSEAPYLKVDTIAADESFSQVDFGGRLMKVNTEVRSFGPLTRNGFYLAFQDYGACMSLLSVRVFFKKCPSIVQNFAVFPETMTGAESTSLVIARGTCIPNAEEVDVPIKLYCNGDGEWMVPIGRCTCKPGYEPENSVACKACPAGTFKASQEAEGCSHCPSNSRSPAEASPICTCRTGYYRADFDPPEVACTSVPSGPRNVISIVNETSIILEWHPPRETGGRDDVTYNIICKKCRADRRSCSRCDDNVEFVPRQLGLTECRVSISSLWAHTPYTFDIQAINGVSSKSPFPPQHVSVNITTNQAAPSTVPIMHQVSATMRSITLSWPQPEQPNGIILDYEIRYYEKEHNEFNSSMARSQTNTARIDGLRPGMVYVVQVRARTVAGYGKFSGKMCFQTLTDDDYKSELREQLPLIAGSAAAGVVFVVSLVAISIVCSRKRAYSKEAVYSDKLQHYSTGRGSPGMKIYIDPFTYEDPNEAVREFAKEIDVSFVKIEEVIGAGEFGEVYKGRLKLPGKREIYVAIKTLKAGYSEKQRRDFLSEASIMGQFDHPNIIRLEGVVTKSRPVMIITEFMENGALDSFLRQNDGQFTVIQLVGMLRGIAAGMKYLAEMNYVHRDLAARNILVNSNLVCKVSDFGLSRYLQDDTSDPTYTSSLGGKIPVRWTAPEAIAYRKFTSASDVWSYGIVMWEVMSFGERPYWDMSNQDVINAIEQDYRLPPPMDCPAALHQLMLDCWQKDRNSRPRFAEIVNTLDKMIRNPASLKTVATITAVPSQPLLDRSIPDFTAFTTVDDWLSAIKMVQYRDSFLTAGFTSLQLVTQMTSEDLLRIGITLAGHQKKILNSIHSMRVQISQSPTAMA

Sequence | phosphorylation enrichment [1] | phosphorylation enrichment [2] | phosphorylation enrichment [3] | phosphorylation enrichment [4] | phosphorylation enrichment [5] | phosphorylation enrichment [6] | phosphorylation enrichment [7] | phosphorylation enrichment [8] | phosphorylation enrichment [9] | phosphorylation enrichment [10] | phosphorylation enrichment [11] | phosphorylation enrichment [12] | phosphorylation enrichment [13] | SH2 binding enrichment [14] | SH2 binding enrichment [15] | SH2 binding enrichment [16]
SSTAMYSAPGR [PSMB1_Y8] | 0.75 | 0.497 | 0.674 | 0.45 | 0.464 | 0.857 | 0.524 | 0.484 | 2.28 | 0.58 | 1.66 | 6.02 | 0.631 | 0.774 | 0.557 | 1.08
STDDGYIDLQF [TMEM230_Y29] | 1.22 | 0.701 | 0.472 | 1.01 | 1.01 | 0.584 | 1.09 | 0.564 | 0.521 | 1.19 | 0.513 | 0.695 | 0.488 | 0.834 | 0.764 | 0.986
SVETPYGSVTF [NDRG2_Y47] | 0.82 | 0.501 | 0.438 | 0.397 | 0.53 | 5.24 | 0.928 | 5.93 | 2.16 | 0.606 | 0.52 | 0.635 | 4.56 | 0.809 | 0.527 | 0.427
SVICTYSPALN [TP53_Y126_T123I] | 1.36 | 0.59 | 0.673 | 0.61 | 0.779 | 0.651 | 1.44 | 0.546 | 0.523 | 1.03 | 0.438 | 0.97 | 0.58 | 0.838 | 0.731 | 0.448
SVTCTYSPALK [TP53_Y126_N131K] | 0.97 | 0.407 | 0.567 | 0.407 | 0.602 | 0.353 | 1.02 | 0.467 | 0.498 | 0.866 | 0.405 | 0.839 | 0.557 | 0.697 | 0.518 | 0.523
SVTCTYSPALT [TP53_Y126_N131T] | 1.75 | 0.872 | 0.615 | 0.524 | 0.908 | 0.706 | 1.76 | 0.446 | 0.694 | 1.6 | 0.432 | 1.2 | 0.741 | 0.666 | 0.474 | 0.436
SVTGTYSPALN [TP53_Y126_C124G] | 0.661 | 0.419 | 0.424 | 0.394 | 0.593 | 0.434 | 0.769 | 0.584 | 0.621 | 0.835 | 0.444 | 0.717 | 0.549 | 0.852 | 0.747 | 0.415
SVVVHYEPPEV [TP53_Y220_P219H] | 1.15 | 0.699 | 0.616 | 0.525 | 0.647 | 1.86 | 1.02 | 0.484 | 0.537 | 0.758 | 0.71 | 1.72 | 0.485 | 0.849 | 0.757 | 1.68
SVVVPYEPPEG [TP53_Y220_V225G] | 1.02 | 0.685 | 0.492 | 0.533 | 0.714 | 0.445 | 0.929 | 0.525 | 0.503 | 1.01 | 0.559 | 0.633 | 0.446 | 1.03 | 0.997 | 0.67
TDIVAYSGWVQ [SPTBN2_Y477_R480W] | 1.03 | 0.684 | 0.532 | 0.573 | 0.779 | 1.38 | 1.02 | 0.824 | 1.53 | 0.82 | 0.621 | 1.75 | 1.4 | 0.881 | 1.2 | 0.642
TDKLFYIFTPG [SLC27A4_Y243_S247P_YF] | 1.36 | 0.776 | 0.583 | 0.91 | 1.11 | 0.544 | 1.49 | 0.392 | 0.607 | 1.65 | 1.72 | 0.873 | 0.556 | 0.787 | 0.604 | 0.401
TDKLFYIYTPG [SLC27A4_Y243_S247P] | 1.25 | 0.683 | 0.502 | 0.728 | 0.853 | 0.494 | 1.34 | 0.422 | 0.498 | 1.68 | 1.46 | 0.673 | 0.592 | 0.684 | 1.12 | 0.383
TEALFYTDDTA [ADPRS_Y75_YF] | 1.26 | 0.643 | 0.614 | 0.535 | 0.754 | 0.557 | 1.44 | 0.568 | 0.602 | 1.17 | 0.541 | 0.787 | 0.634 | 0.739 | 0.675 | 0.615
TENAGYYFRVS | 1.44 | 0.491 | 1.02 | 0.82 | 1.14 | 0.677 | 2.21 | 0.407 | 0.728 | 3.16 | 0.714 | 1.04 | 0.421 | 0.878 | 0.897 | 0.547
TFHNTYHSQMR [IL1RAPL1_Y615] | 0.631 | 0.33 | 0.411 | 0.458 | 0.489 | 0.466 | 0.567 | 0.471 | 0.434 | 0.849 | 0.402 | 0.612 | 0.5 | 0.872 | 0.597 | 0.682
TFVKSYTIHFS [F5_Y2153_M2148T_YF] | 1.04 | 0.599 | 0.468 | 0.517 | 0.899 | 0.521 | 1.29 | 0.468 | 0.424 | 1.28 | 0.434 | 0.873 | 0.447 | 0.97 | 0.729 | 0.537
TFWKKYCTFWK [CCDC70_Y125_R126C] | 0.966 | 0.381 | 0.425 | 0.438 | 0.619 | 0.364 | 0.794 | 0.381 | 0.38 | 0.844 | 0.402 | 0.752 | 0.395 | 1.1 | 0.594 | 0.517

Sequence | phosphorylation enrichment [1] | phosphorylation enrichment [2] | phosphorylation enrichment [3] | phosphorylation enrichment [4] | phosphorylation enrichment [5] | phosphorylation enrichment [6] | phosphorylation enrichment [7] | phosphorylation enrichment [8] | phosphorylation enrichment [9] | phosphorylation enrichment [10] | phosphorylation enrichment [11] | phosphorylation enrichment [12] | phosphorylation enrichment [13] | SH2 binding enrichment [14] | SH2 binding enrichment [15] | SH2 binding enrichment [16]
TGDVQYRSSVR [FREM2_Y2158] | 0.529 | 0.292 | 0.423 | 0.468 | 0.397 | 0.385 | 0.534 | 0.331 | 0.357 | 0.408 | 0.398 | 0.459 | 0.357 | 1.02 | 0.631 | 0.433
TGEKLYQHKEF [ZNF283_Y627_R629H] | 0.62 | 0.45 | 0.402 | 0.418 | 0.528 | 0.436 | 0.679 | 0.39 | 0.495 | 0.599 | 0.397 | 0.665 | 0.417 | 0.818 | 0.695 | 0.419
TGILLYGLASR [QARS1_Y57] | 0.885 | 0.964 | 1.38 | 0.529 | 0.692 | 1.46 | 1.16 | 0.578 | 1.22 | 0.937 | 1.79 | 0.756 | 0.765 | 0.855 | 0.803 | 0.497
TGTQLYGRFGS [ITGA2B_Y384] | 0.619 | 0.351 | 0.498 | 0.451 | 0.513 | 0.389 | 0.654 | 10.6 | 7.54 | 0.608 | 0.732 | 0.404 | 7.68 | 0.779 | 0.569 | 0.418
THPFLYLSLEI [MLH1_Y293] | 1.13 | 0.628 | 0.648 | 0.622 | 0.827 | 0.478 | 1.52 | 0.383 | 0.516 | 1.4 | 0.385 | 0.817 | 0.363 | 1.19 | 0.74 | 0.682
THPFLYLTLEI [MLH1_Y293_S295T] | 1.71 | 0.889 | 0.889 | 0.652 | 1.23 | 0.778 | 2 | 0.473 | 0.556 | 1.97 | 0.524 | 1.22 | 0.548 | 0.873 | 0.688 | 0.623
THPFPYLSLEI [MLH1_Y293_L292P] | 0.909 | 0.502 | 0.474 | 0.657 | 0.677 | 0.39 | 0.978 | 0.295 | 0.475 | 1.09 | 0.414 | 0.715 | 0.554 | 1.04 | 0.752 | 2.05
TIQDAYMHITS [ADCY10_Y318_A313T] | 0.7 | 0.479 | 0.398 | 0.624 | 0.43 | 0.416 | 0.799 | 0.51 | 0.496 | 0.676 | 0.529 | 0.525 | 0.451 | 0.902 | 0.895 | 1.26
TIQIMFGCDVG [HLA-A_Y123_Y123F] | 1.28 | 0.905 | 0.801 | 0.645 | 1.14 | 0.749 | 1.86 | 0.545 | 0.619 | 1.42 | 0.503 | 1.01 | 0.548 | 0.861 | 0.84 | 0.515
TKDTFYKQRMF [GBA_Y451_P454R] | 0.56 | 0.359 | 0.406 | 0.41 | 0.391 | 0.416 | 0.579 | 0.344 | 0.339 | 0.404 | 0.372 | 0.458 | 0.351 | 0.83 | 0.68 | 0.396
TKEPKYGGAGS [KIAA1210_Y1615_E1616G] | 0.5 | 0.431 | 0.44 | 0.405 | 0.548 | 0.457 | 0.55 | 0.459 | 0.361 | 0.416 | 0.384 | 0.462 | 0.409 | 1.08 | 0.983 | 0.487
TKFRNYLIPKG [CYP2C8_Y379] | 0.47 | 0.374 | 0.421 | 0.381 | 0.425 | 0.345 | 0.565 | 0.365 | 0.429 | 0.592 | 0.374 | 0.573 | 0.443 | 1.1 | 0.92 | 0.631
TKGNEYVFRVA | 0.826 | 0.415 | 0.565 | 0.519 | 0.619 | 0.386 | 0.82 | 0.496 | 0.511 | 0.549 | 0.452 | 0.537 | 0.489 | 0.871 | 1.39 | 0.469
TKLKDYFIFNK [CCDC42_Y149_A144T_YF] | 0.685 | 0.52 | 0.353 | 1.05 | 0.871 | 0.376 | 0.766 | 0.419 | 0.42 | 0.702 | 0.401 | 0.476 | 0.575 | 0.773 | 0.595 | 0.724
TKYVAYIESQG [KDM4B_Y34_N29T] | 0.924 | 0.456 | 0.611 | 0.541 | 0.608 | 0.432 | 0.828 | 0.546 | 0.485 | 0.498 | 0.331 | 0.508 | 0.418 | 0.8 | 8.32 | 0.675
TLLPDYEDEEE [ZNF830_Y159_S154T] | 1.64 | 0.925 | 0.962 | 0.683 | 0.938 | 0.788 | 1.28 | 0.605 | 0.709 | 1.1 | 0.546 | 0.846 | 0.62 | 1.06 | 0.815 | 0.635
